Here are results for 125 sequences from the supplement of paper PMC9112550, “Optimization of the antimicrobial peptide Bac7 by deep mutational scanning” (BMC Biology, 2022).
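Further: peptides expressed intracellularly from a pBAD plasmid library in pooled LB shake-flask culture, induced with 0.3% L-arabinose, DNA abundance read by NGS, three biological replicates, DESeq2 with apeglm shrinkage.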

The test system of this data set is Escherichia coli TOP10. In words: shrunken log2 fold change of peptide-encoding DNA abundance (4.5 h post-induction vs induction); higher = less antimicrobial activity (less host growth inhibition). To be noted: time post-induction: 4.5 h; library: site-saturation at positions 5, 18, 19, 20.
In the case of RRIRMRPPRLPRPRPRPKWPPRP, the “shrunken log2 fold change” value turned out to be 1.18.

On to RRIRNRPPRLPRPRPRPVTVPRP, for which the “shrunken log2 fold change” value is -0.404.

On to RRIRARPPRLPRPRPRPMDKPRP, for which the “shrunken log2 fold change” value stood at 0.0591.

With RRIRGRPPRLPRPRPRPIPGPRP, the “shrunken log2 fold change” value was 0.107.

In the case of RRIRYRPPRLPRPRPRPSSWPRP, the “shrunken log2 fold change” value is -0.284.

Take RRIRFRPPRLPRPRPRPHCYPRP: the “shrunken log2 fold change” value came out at 0.149.

As to RRIRNRPPRLPRPRPRPKPFPRP, the “shrunken log2 fold change” value was -0.104.

Consider RRIRSRPPRLPRPRPRPDRNPRP, for which the “shrunken log2 fold change” value is -0.228.

Take RRIRARPPRLPRPRPRPWTTPRP: the “shrunken log2 fold change” value amounted to 0.0452.

Regarding RRIRHRPPRLPRPRPRPTYAPRP, the “shrunken log2 fold change” value was -0.127.

On to RRIRDRPPRLPRPRPRPCTKPRP, for which the “shrunken log2 fold change” value is -0.0891.

As to RRIRKRPPRLPRPRPRPNHYPRP, the “shrunken log2 fold change” value is -0.441.

Consider RRIRNRPPRLPRPRPRPLQDPRP, for which the “shrunken log2 fold change” value is -0.247.

Regarding RRIRKRPPRLPRPRPRPHLNPRP, the “shrunken log2 fold change” value was 0.14.

Take RRIRMRPPRLPRPRPRPTINPRP: the “shrunken log2 fold change” value was -0.109.

Take RRIRGRPPRLPRPRPRPDELPRP: the “shrunken log2 fold change” value is 0.955.

Regarding RRIRPRPPRLPRPRPRPHSMPRP, the “shrunken log2 fold change” value is -0.408.

Take RRIRVRPPRLPRPRPRPGLNPRP: the “shrunken log2 fold change” value is -0.00582.

Regarding RRIRDRPPRLPRPRPRPPPDPRP, the “shrunken log2 fold change” value came to 1.14.

For the sequence RRIRSRPPRLPRPRPRPEWCPRP, the “shrunken log2 fold change” value amounted to 0.219.

RRIRSRPPRLPRPRPRPKGGPRP: the “shrunken log2 fold change” value amounted to 0.149.

Consider RRIRDRPPRLPRPRPRPSYKPRP, for which the “shrunken log2 fold change” value was -0.208.

As to RRIRRRPPRLPRPRPRPLWEPRP, the “shrunken log2 fold change” value was found to be 0.378.

Regarding RRIRFRPPRLPRPRPRPCPAPRP, the “shrunken log2 fold change” value amounted to 1.36.

As to RRIRIRPPRLPRPRPRPKGEPRP, the “shrunken log2 fold change” value is 0.00835.

On to RRIRTRPPRLPRPRPRPGQQPRP, for which the “shrunken log2 fold change” value is -0.0603.

On to RRIRIRPPRLPRPRPRPTSMPRP, for which the “shrunken log2 fold change” value was -0.0835.

As for RRIRDRPPRLPRPRPRPNCWPRP, the “shrunken log2 fold change” value was -0.113.

With RRIRVRPPRLPRPRPRPIKQPRP, the “shrunken log2 fold change” value came to 0.0119.

With RRIRHRPPRLPRPRPRPFIDPRP, the “shrunken log2 fold change” value was -0.121.

As to RRIRKRPPRLPRPRPRPMYLPRP, the “shrunken log2 fold change” value amounted to 0.239.

Consider RRIRDRPPRLPRPRPRPGYWPRP, for which the “shrunken log2 fold change” value came to 0.242.

Turning to RRIRIRPPRLPRPRPRPDADPRP, the “shrunken log2 fold change” value is 0.194.

RRIRERPPRLPRPRPRPLNWPRP: the “shrunken log2 fold change” value was -0.373.

Take RRIRQRPPRLPRPRPRPCIRPRP: the “shrunken log2 fold change” value is -0.0303.

Consider RRIRSRPPRLPRPRPRPEYFPRP, for which the “shrunken log2 fold change” value is -1.04.

Consider RRIRDRPPRLPRPRPRPTVQPRP, for which the “shrunken log2 fold change” value stood at 0.158.

As for RRIRRRPPRLPRPRPRPNCFPRP, the “shrunken log2 fold change” value was 0.176.

Consider RRIRIRPPRLPRPRPRPHCSPRP, for which the “shrunken log2 fold change” value is -1.21.

On to RRIRERPPRLPRPRPRPKSMPRP, for which the “shrunken log2 fold change” value is -0.307.

Take RRIRERPPRLPRPRPRPAQPPRP: the “shrunken log2 fold change” value came to 0.0203.

For RRIRLRPPRLPRPRPRPQNQPRP, the “shrunken log2 fold change” value was -0.159.

Regarding RRIRSRPPRLPRPRPRPRLRPRP, the “shrunken log2 fold change” value was 0.287.

In the case of RRIRRRPPRLPRPRPRPYNWPRP, the “shrunken log2 fold change” value was -0.734.

In the case of RRIRDRPPRLPRPRPRPTETPRP, the “shrunken log2 fold change” value is -0.000924.

With RRIRGRPPRLPRPRPRPVIKPRP, the “shrunken log2 fold change” value is 0.0737.

For the sequence RRIRERPPRLPRPRPRPYCGPRP, the “shrunken log2 fold change” value was -0.109.

Turning to RRIRPRPPRLPRPRPRPFNHPRP, the “shrunken log2 fold change” value was -0.304.

On to RRIRCRPPRLPRPRPRPEFMPRP, for which the “shrunken log2 fold change” value amounted to 0.118.

In the case of RRIRWRPPRLPRPRPRPVKWPRP, the “shrunken log2 fold change” value is -0.0659.

As for RRIRGRPPRLPRPRPRPPFGPRP, the “shrunken log2 fold change” value is 0.738.

Turning to RRIRQRPPRLPRPRPRPCSIPRP, the “shrunken log2 fold change” value is -0.022.

In the case of RRIRDRPPRLPRPRPRPTWEPRP, the “shrunken log2 fold change” value stood at 1.13.

With RRIRTRPPRLPRPRPRPILTPRP, the “shrunken log2 fold change” value is -0.139.

Take RRIRTRPPRLPRPRPRPGEIPRP: the “shrunken log2 fold change” value was -0.26.

Consider RRIRVRPPRLPRPRPRPPSCPRP, for which the “shrunken log2 fold change” value came to 0.187.

Regarding RRIRVRPPRLPRPRPRPVHNPRP, the “shrunken log2 fold change” value is -0.404.

For the sequence RRIRERPPRLPRPRPRPHPTPRP, the “shrunken log2 fold change” value is 0.0575.

As for RRIRWRPPRLPRPRPRPFRSPRP, the “shrunken log2 fold change” value is -0.128.

Regarding RRIRYRPPRLPRPRPRPRSDPRP, the “shrunken log2 fold change” value is -0.113.

Consider RRIRFRPPRLPRPRPRPILMPRP, for which the “shrunken log2 fold change” value is -0.0682.

For RRIRRRPPRLPRPRPRPIQHPRP, the “shrunken log2 fold change” value was found to be 0.0238.

With RRIRQRPPRLPRPRPRPCILPRP, the “shrunken log2 fold change” value was -0.458.

As for RRIRERPPRLPRPRPRPRFQPRP, the “shrunken log2 fold change” value is 0.2.

On to RRIRLRPPRLPRPRPRPVDEPRP, for which the “shrunken log2 fold change” value is -0.0573.

Consider RRIRARPPRLPRPRPRPKVVPRP, for which the “shrunken log2 fold change” value is -0.0348.

With RRIRLRPPRLPRPRPRPTKSPRP, the “shrunken log2 fold change” value stood at 0.127.

Consider RRIRDRPPRLPRPRPRPKHMPRP, for which the “shrunken log2 fold change” value was -0.192.

For RRIRNRPPRLPRPRPRPNIHPRP, the “shrunken log2 fold change” value is -0.457.

In the case of RRIRRRPPRLPRPRPRPVDHPRP, the “shrunken log2 fold change” value was 0.34.

As for RRIRQRPPRLPRPRPRPTIDPRP, the “shrunken log2 fold change” value is -0.0223.

As to RRIRRRPPRLPRPRPRPDANPRP, the “shrunken log2 fold change” value turned out to be 0.555.

RRIRGRPPRLPRPRPRPNYMPRP: the “shrunken log2 fold change” value was -0.0439.

Regarding RRIRPRPPRLPRPRPRPEQCPRP, the “shrunken log2 fold change” value was -0.0149.

With RRIRARPPRLPRPRPRPIVRPRP, the “shrunken log2 fold change” value was -0.146.

Turning to RRIRCRPPRLPRPRPRPTPDPRP, the “shrunken log2 fold change” value stood at 0.857.

Take RRIRCRPPRLPRPRPRPQRIPRP: the “shrunken log2 fold change” value was found to be 0.0509.

As for RRIRGRPPRLPRPRPRPFNTPRP, the “shrunken log2 fold change” value is -0.309.

As to RRIRSRPPRLPRPRPRPDQKPRP, the “shrunken log2 fold change” value is -0.00231.

Consider RRIRQRPPRLPRPRPRPNYQPRP, for which the “shrunken log2 fold change” value is -0.491.

As to RRIRSRPPRLPRPRPRPGFGPRP, the “shrunken log2 fold change” value was found to be 0.463.

On to RRIRDRPPRLPRPRPRPIEAPRP, for which the “shrunken log2 fold change” value is 0.184.

In the case of RRIRPRPPRLPRPRPRPICEPRP, the “shrunken log2 fold change” value turned out to be 0.227.

RRIRDRPPRLPRPRPRPQVMPRP: the “shrunken log2 fold change” value worked out at 0.0256.

As for RRIRHRPPRLPRPRPRPQGVPRP, the “shrunken log2 fold change” value is -0.00445.

RRIRARPPRLPRPRPRPQYLPRP: the “shrunken log2 fold change” value was -0.204.

For RRIRMRPPRLPRPRPRPPNMPRP, the “shrunken log2 fold change” value turned out to be 0.268.

Regarding RRIRIRPPRLPRPRPRPKHTPRP, the “shrunken log2 fold change” value is -0.329.

With RRIRERPPRLPRPRPRPHKDPRP, the “shrunken log2 fold change” value stood at 0.144.

Turning to RRIRGRPPRLPRPRPRPCADPRP, the “shrunken log2 fold change” value was 1.48.

In the case of RRIRDRPPRLPRPRPRPDSRPRP, the “shrunken log2 fold change” value is -0.00898.

Consider RRIRSRPPRLPRPRPRPHRVPRP, for which the “shrunken log2 fold change” value came out at 0.0316.

Consider RRIRTRPPRLPRPRPRPCTFPRP, for which the “shrunken log2 fold change” value is -0.241.

As to RRIRKRPPRLPRPRPRPHEIPRP, the “shrunken log2 fold change” value stood at 0.704.

RRIRSRPPRLPRPRPRPKGNPRP: the “shrunken log2 fold change” value was -0.144.

Take RRIRIRPPRLPRPRPRPQCYPRP: the “shrunken log2 fold change” value is -0.0646.

For RRIRNRPPRLPRPRPRPAKRPRP, the “shrunken log2 fold change” value was determined as 0.27.

With RRIRGRPPRLPRPRPRPEWMPRP, the “shrunken log2 fold change” value came out at 0.933.

With RRIRDRPPRLPRPRPRPWPHPRP, the “shrunken log2 fold change” value was -0.00987.

As for RRIRLRPPRLPRPRPRPKHLPRP, the “shrunken log2 fold change” value was -0.364.

For RRIRHRPPRLPRPRPRPCKYPRP, the “shrunken log2 fold change” value came out at 0.0259.

Consider RRIRWRPPRLPRPRPRPGNPPRP, for which the “shrunken log2 fold change” value was -0.139.

As to RRIRFRPPRLPRPRPRPKNDPRP, the “shrunken log2 fold change” value is -0.407.

Turning to RRIRQRPPRLPRPRPRPIEMPRP, the “shrunken log2 fold change” value was -0.0847.

In the case of RRIRDRPPRLPRPRPRPPMSPRP, the “shrunken log2 fold change” value is 0.137.

Consider RRIRKRPPRLPRPRPRPWCYPRP, for which the “shrunken log2 fold change” value is -0.168.

In the case of RRIRQRPPRLPRPRPRPWMMPRP, the “shrunken log2 fold change” value is 0.0873.

In the case of RRIRERPPRLPRPRPRPTFVPRP, the “shrunken log2 fold change” value is 0.0579.

Take RRIRDRPPRLPRPRPRPRHLPRP: the “shrunken log2 fold change” value is -0.199.

Take RRIRYRPPRLPRPRPRPYCFPRP: the “shrunken log2 fold change” value was -1.

With RRIRDRPPRLPRPRPRPRPMPRP, the “shrunken log2 fold change” value stood at 0.583.

As for RRIRNRPPRLPRPRPRPQMLPRP, the “shrunken log2 fold change” value was -0.409.

On to RRIRYRPPRLPRPRPRPDMAPRP, for which the “shrunken log2 fold change” value is -0.255.

In the case of RRIRNRPPRLPRPRPRPRKRPRP, the “shrunken log2 fold change” value was -0.0369.

Regarding RRIRDRPPRLPRPRPRPLPHPRP, the “shrunken log2 fold change” value is -0.146.

For RRIRSRPPRLPRPRPRPQRIPRP, the “shrunken log2 fold change” value is -0.322.

Consider RRIRKRPPRLPRPRPRPCKWPRP, for which the “shrunken log2 fold change” value was determined as 0.0523.

RRIRQRPPRLPRPRPRPPMTPRP: the “shrunken log2 fold change” value was -0.268.

RRIRTRPPRLPRPRPRPCDQPRP: the “shrunken log2 fold change” value was -0.252.

RRIRCRPPRLPRPRPRPPENPRP: the “shrunken log2 fold change” value was found to be 0.2.

Take RRIRQRPPRLPRPRPRPMTKPRP: the “shrunken log2 fold change” value is -0.0865.

With RRIRNRPPRLPRPRPRPNKLPRP, the “shrunken log2 fold change” value was -0.36.

As to RRIRRRPPRLPRPRPRPCASPRP, the “shrunken log2 fold change” value is 0.0214.

Regarding RRIRIRPPRLPRPRPRPPKFPRP, the “shrunken log2 fold change” value is -0.294.

On to RRIRSRPPRLPRPRPRPIVLPRP, for which the “shrunken log2 fold change” value was -0.639.
